Source: the nanobody polyreactivity screen of Harvey et al. (2022)

Assay: yeast display, Sf9 membrane polyspecificity reagent, FACS + sequencing; frameworks hold sequencing errors
In short: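 Nanobodies came from a synthetic yeast display library in Saccharomyces cerevisiae BJ5465, induced with galactose for 36–48 hours and stained for 1 hour at 4 °C with 10% biotinylated, detergent-solubilized Sf9 membrane reagent. Cells were enriched on streptavidin microbeads and then FACS-sorted, with low and high (top ~1%) gates set on anti-HA fluorescence for expression and streptavidin fluorescence for reagent binding. Each polyreactivity label reflects the gate a clone came from. Genes were amplified by colony PCR, sequenced by MiSeq 2 × 250 and filtered by CDR length.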

| Sequence | polyreactivity (PSR sort gate) |
| --- | --- |
| QVQLVDSGGGLVQAGGRLRLSCAPSGLTFARNAMGWYIQAPGKERELVAAISRSGGRTSYADSVKGRFTISRDIAKNTVYVQMNSLKPVDTAVYYCAARSDVYSHDYWGQGTQVTVSS | high polyreactivity |
| QVQLVDSGGGLVQAGGRLRLSCDASGLTLYKNGLGWYRLEPVKERELFAVISRSGGRTYYADSVKGRFTISRDNAKNTVYLQFNSLKPEETAVYYCAARGIGPTKYDYLGQGTQVTVSS | high polyreactivity |
| QVQLVDSGGGLVQAGGSHRLSCAASGLTYHQYAMGWYRQAPGKERELVAAITSDGASTNYADSVKGRFTISRDNAKNTVYLQMISLKPEDTAVYYGAARRRSRQYRYDYWGQGTQVTVSS | high polyreactivity |
| QVQLVDSGGGLVQAGGSLRFSCAASGRTSNVYAMGWFRQAPGKERELVAAISARDGTTYNADSVKGRFTISRDNAKNTVYLQMNSLKPEDTAVYYCAAAVLSYADYYYDYEYWGQGTQVTVSS | high polyreactivity |
| QVQLVDSGGGLVQAGGSLRISCAASGRNFGYNAMGSYRQAPGKERELVAAISSGGSTYYADSVKGLFTISRDNAKNTVYLQINSLKPEDTAVYFCAAEDYPPYPTDYDYWGQGSQVTVSS | low polyreactivity |
| QVQLVDSGGGLVQAGGSLRLICAASGRTFGGNTMGWYREAPGKERELVAAISRRGGSTYYADSVKGRFSISRDNAKNTVYLQMNSLKPEDTAVYYCNKDGPSYSSYDYWGQGTQVTVSS | low polyreactivity |
| QVQLVDSGGGLVQAGGSLRLICAASGSIFIDKAMGWYRQAPGKERELVAAISWSGGRTYYADSVKGRFTISRDNAKNTVYLQMNSLKPEDTAVYYCAVDFRHPYDYDYWGQGTQVTVSS | high polyreactivity |
| QVQLVDSGGGLVQAGGSLRLSCAAAGSNLSQYAMGWYRQAPGKERELVAAITYGGGSTYYADSVKGRFTISRDNAKKTVHIQMISLKPEDPAVYYCALEFTYWGDPYDYWGQGTQVTVSS | low polyreactivity |
| QVQLVDSGGGLVQAGGSLRLSCAASGFIDALDAMGWYRQAPGKERELVAAISYSGGSTYYADSVKGRFTISRDNAKNTVYLQMNSLKPEDTAVYYCAVYYRSAFYYWGQGTQVTVSS | high polyreactivity |
| QVQLVDSGGGLVQAGGSLRLSCAASGFIFDTNVMGWYRQAPGKERELVAAISWDVDSTYYADSVKGRFTISRDNAKNTVYLQMNSLKPEDTAVYYCATETFDYYGLAGEYWGQGTQVTVSS | high polyreactivity |
| QVQLVDSGGGLVQAGGSLRLSCAASGFIFFQNAMGWYRQSPGKERELVAAISRRGGSTYYADSVKGRFTISRDNAKNTVYLQRNSLTPDDTAGYYCAARSRCDLASRYTGDYWGQGTQLTVSS | low polyreactivity |
| QVQLVDSGGGLVQAGGSLRLSCAASGFIFTQYAMGWYRQAPGQDRELVAAISRSGSSTYYADSVKGRFTISRDNAKNTVSLQMNSLKPEDTAVYYCAAKGSRGTRYWGEDYWGQGTQVTVSS | low polyreactivity |
| QVQLVDSGGGLVQAGGSLRLSCAASGFIFVRYAMGWYRQAPGKERELVAAISWSGARTYYADSVKGRFTISRDNAKNTVYLQFNSLKPEDSAVYYCAADSLDAGYYGYDYWGQGTQVGVSS | high polyreactivity |
| QVQLVDSGGGLVQAGGSLRLSCAASGFTFRPYAMGWYRQAPGKERELVATITGRGGSTYYADSVKGRFTISRDTAKNTVYLQMNSLKPEDTAVYYCASRARYSPAPYDYWGQGTQVTVSS | high polyreactivity |
| QVQLVDSGGGLVQAGGSLRLSCAASGFTFVYYFMGWYRQAPGKERELVAAITRSCRTYYADSVKGRFTISRDNAKNTVYLQMNSLKPEDTAVYYCARGYGYADHAMGYWGQGTQVTVSS | high polyreactivity |
| QVQLVDSGGGLVQAGGSLRLSCAASGFTFYLYTMGWYRPAPGKERQLVATITSDGGTNYADSVKGRFTISRDNAKNTVYLQMNSLKPEDTAVYYCNAASRRGSRKQAKYDYWGQGTQVTVSS | low polyreactivity |
| QVQLVDSGGGLVQAGGSLRLSCAASGFTFYRYAMGWYRQAPGKERELVAAITGRAGRTYYADSVKGRFTISRDNAKNTVYLQMNSLKPEDTAVYYCSGYRYYGGYGYWGQGTQVTVSS | high polyreactivity |
| QVQLVDSGGGLVQAGGSLRLSCAASGFTIKYYAMVWYRQAPGKERELVATITSGARTNYADSVKGRFTISRDNAKNTVYLQMNSLKPEDTAVYYCATPYSAYWQNERDYWGQGTQVTVSS | high polyreactivity |
| QVQLVDSGGGLVQAGGSLRLSCAASGGTFKYYAMGWYRQAPGKERELVAAITWSGGSTYYADSVKGRFTISRDNAKNTVYLQMNSLKPEDTAVYYCNAAYSQIRFNYWGQGTQVTVSS | high polyreactivity |
| QVQLVDSGGGLVQAGGSLRLSCAASGGTFQGNAMGWYRQAPGKEREFVATITRGGGSKYYADSVKGRFTISRDNAKNTVYLQMNSLKPEDTAVYFCNAYLVSRYPGDYWGQGTQVTVSP | high polyreactivity |
| QVQLVDSGGGLVQAGGSLRLSCAASGGTLRYYAMGWYRQAPGTEREFVASISRSGGSTYYADSVKGRFTISRDTAKYTVYLQMNSLKPVDTAVYYCADVKSSGSPRARYGYWGQGTQVTLSS | high polyreactivity |
| QVQLVDSGGGLVQAGGSLRLSCAASGITFSGYDMGWYRQAPWKERELVADITISTGSTYYADSVKGRYTISRDNAKNSVYLQMNSLKPEDTAVYYCAADWTGGFYTWYVIPYDYWGQGTQVTVSS | low polyreactivity |

| Sequence | polyreactivity (PSR sort gate) |
| --- | --- |
| QVQLVDSGGGLVQAGGSLRLSCAASGITFTRYAMGWYRQAPGKERELVAAISSGGRTNYADSVKGRFTISRDNAKNTVYLQMNSLKREDTAVYYCNALYRARWGLGTQVTVSS | high polyreactivity |
| QVQLVDSGGGLVQAGGSLRLSCAASGLIFLYYAMGWYRQAPGKERELVAAISSSGSTYYADSVKGRFTISRDNAKNTVYLQMNSLKPEDTAVYYCAARWTRNYGMNYWGQGTQVTVSS | high polyreactivity |
| QVQLVDSGGGLVQAGGSLRLSCAASGLTFYSNAMGWYRQAPGKEREFVASITRRTGITFYAVSVKGRFTISRDNAKNTVYLQMNSLKPYDTAVYYCATRGGYPKGYGYLAFNYWGQGTQVTVSS | high polyreactivity |
| QVQLVDSGGGLVQAGGSLRLSCAASGNIFVGNAMGWYRQAPGKERELVAAIRRSGGTTYYADSVKGRFTISRDNAKNTVYLQMNSLKPEDTAVYYCAASRPYQGDYWGQGTQVTVSS | low polyreactivity |
| QVQLVDSGGGLVQAGGSLRLSCAASGRIFRYNTMGWYRQAPGKEREFVAAITQRGVNTYYADSVKGRFTISRDNAKNTVYLQMNRLKPEDTAVYYCNAKRYSYWIYRAYDYWGQGTQVTVSS | low polyreactivity |
| QVQLVDSGGGLVQAGGSLRLSCAASGRIFRYYAMGWSRQAPGKERELVARITNGAITNYADSVKGRFTISRDNAKNTLYLQRNSLKPEETAVYYCAATQNLYRCGYWGQGTQVTVSS | high polyreactivity |
| QVQLVDSGGGLVQAGGSLRLSCAASGRIFWHNAMGWYRQAPGKERELVAAITGGGSTYYADSVKGRFTMSRVNAKNTVYLQKNSLIPEDTAVYYCATLGSLRYYWPGYDYWGQGTQVTVSS | low polyreactivity |
| QVQLVDSGGGLVQAGGSLRLSCAASGRIFYAYDMGWYRQAPGKERELVADITSSGSTNYADSVKGRFTISRDNAKNTVYLQMNSLKPEDTAVYYCNTEPSGYESGYWGQGTQVTVSS | low polyreactivity |
| QVQLVDSGGGLVQAGGSLRLSCAASGRIFYFNAMGWYREAPGKERELVAAISKSGGSTYYADSVKGRFTISRDNAKNTVYLQMNSLKPEDTAVYYCAAGFWYYSYPTLYEYGYWGQGTQVTVSS | low polyreactivity |
| QVQLVDSGGGLVQAGGSLRLSCAASGRIFYSYAMGWYRQAPGKERELVAAISRSGGRTYYADSVKARFTISRDNAKNTVYFQMNSLKPEDTAVYYCAADGRVGEEEYWGQGTQVTVSS | high polyreactivity |
| QVQLVDSGGGLVQAGGSLRLSCAASGRNFARYSMGWYRQAPGTERELVAAISWCGTSTYYADSVKGRYTISRDNAKNTVYLQMNSLKPEDTAVYYCAATYLYRDQPKWGGFAYTYGHWGQGTQVTVSS | high polyreactivity |
| QVQLVDSGGGLVQAGGSLRLSCAASGRTFGVYAMGWYRQAPGKERELVAVINRSGGSTYYADSVKGRFTISRDNAKNTVYLQMNSLKPEDTAVYYCAARVTSHMYYWGQGTQVTVSS | high polyreactivity |
| QVQLVDSGGGLVQAGGSLRLSCAASGRTFHKYAMGWYRQAPGKERELVAAISNGGRTYYADSVKGRFTISRDNAKNTLYLQMNSLKPEDTAVYYCNADRTWKGRQYDYWGQGTQVTVSS | high polyreactivity |
| QVQLVDSGGGLVQAGGSLRLSCAASGRTIGFYAMGWYRQAPGKERELVAAINRSGDSTYYADSVKGRFTISRDNAKNTVYLQMNSLKPEDTAVYYCAASYGYRYEYWGQGTQVTVSS | high polyreactivity |
| QVQLVDSGGGLVQAGGSLRLSCAASGRTSRRYAMGWYRQEPGKERELVAAIRGSGGSTYYADSVKGRFTISRDNAKNTVYLQMNSLKPEDTAVYYCAARSPRASGNSDYWGQGTQVTVSS | high polyreactivity |
| QVQLVDSGGGLVQAGGSLRLSCAASGRTYFWNAMGWYRQAPGKERELVAAITWSGGSTYYADSVKGRFTISRDNAKNTVYLQMNSLKPEDTAVYYCAAVVSDYVWRYEYWGQGTQVTVSS | low polyreactivity |
| QVQLVDSGGGLVQAGGSLRLSCAASGSIFAYYTIGWYRQAPRKERELVAAITSGGSTNYADSVKGRFTISRDNAKNTVYLQMNSLKPEDTAVYYCAVQGSRYSYRYGYRFRTMDYWGQGTQVTVSS | high polyreactivity |
| QVQLVDSGGGLVQAGGSLRLSCAASGSIFFENDMGCYRQAPGKEREFVAAISLSSTSTYYADSVKGRFTISRDNAKNTVYLQMNSLKPEDTAVYYCAADAIFGWPTFDFWGQGTQVTVSS | low polyreactivity |
| QVQLVDSGGGLVQAGGSLRLSCAASGSIFLLYVMGWYRQAPGKERELVAAISSGGSTNYADSVKGRFTISRDNAKITVYLQMNSLKPEDTAVYYCNAVAGPQGVKLYDYWGQGTQVTVSS | low polyreactivity |
| QVQLVDSGGGLVQAGGSLRLSCAASGSIFPRYAMGWYRQAPGKERELVASISASGGSTYYADSVKGRFTISRDNAKITVYLQMYSLKPEDTAVYYCAKADRTGWLDGDYWGQGTQVTVSS | low polyreactivity |
| QVQLVDSGGGLVQAGGSLRLSCAASGSIFRYKAMGWYRQAPGKERELVAAISWSGGRTYYADSVKGRFTISRDNAKNTVYLQMNSLKPEDTAVYYCAAAWYSSSRYQGIYRFAYWGQGTQVTVSS | high polyreactivity |
